Test results: paper PMC2115152
“And” between values parts separate entries of the source, which are not always exact repeats. Equal values may be shown once. Blank lines part the entries; values can stand above or below the substance they belong to.

Key:
Assay in all cases: co-sedimentation
[1] = molecular target: F-actin (rabbit) (UniProt P68135)
[2] = molecular target: F-actin with 83-kD protein (rabbit | rat) (UniProt P68135)
[3] = molecular target: F-actin first mixed with low mol wt TMs (rabbit | rat) (UniProt P68135)
[4] = molecular target: F-actin first mixed with high mol wt TMs (rabbit | rat) (UniProt P68135)

83-kD nonmuscle caldesmon, sequence (Q62736 whole entry): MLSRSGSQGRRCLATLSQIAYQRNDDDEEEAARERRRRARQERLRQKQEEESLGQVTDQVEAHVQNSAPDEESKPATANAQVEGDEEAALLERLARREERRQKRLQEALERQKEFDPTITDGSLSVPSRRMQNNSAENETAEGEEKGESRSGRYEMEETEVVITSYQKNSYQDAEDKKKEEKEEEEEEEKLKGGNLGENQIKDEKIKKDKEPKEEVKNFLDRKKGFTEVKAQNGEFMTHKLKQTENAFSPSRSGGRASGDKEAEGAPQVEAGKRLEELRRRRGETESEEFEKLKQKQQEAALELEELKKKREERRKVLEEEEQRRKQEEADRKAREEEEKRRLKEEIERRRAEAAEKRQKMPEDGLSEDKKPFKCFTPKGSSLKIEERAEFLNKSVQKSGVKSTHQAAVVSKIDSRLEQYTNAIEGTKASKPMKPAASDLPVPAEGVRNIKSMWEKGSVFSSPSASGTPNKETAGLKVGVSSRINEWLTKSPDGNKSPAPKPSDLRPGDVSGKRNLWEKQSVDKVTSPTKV

- percent of the TM mass bound to actin (50 mM KCl, no 83-kD protein) [1]: < 10%
- percent of the TMs bound to actin (50 mM KCl, no 83-kD protein) [1]: 10%
- fold increase of TM binding to actin against no 83-kD protein (50 mM KCl) [2]: 10 fold
Substance: high mol wt TMs (a mixture of TM-1 [40,000] and TM-2 [36,500])

- stoichiometry N (actin per 83-kD protein) [3]: 6
- stoichiometry N (actin per 83-kD protein) [4]: 6
Substance: 83-kD nonmuscle caldesmon (from UniProt Q62736 1-531) (natural protein)

- Ka [1]: 440000 M⁻¹
- TM bound to actin (0.12 mg/ml TMs, no 83-kD protein) [1]: 0.4 µmol
- molar ratio of TMs to sedimentable actin (0.06 mg/ml TMs, no 83-kD protein) [1]: 157 actin per TM
- molar ratio of TMs to sedimentable actin (0.12 mg/ml TMs, no 83-kD protein) [1]: 29 actin per TM
- percent of actin saturated with TMs (0.06 mg/ml TMs, no 83-kD protein) [1]: 3% and 4%
- percent of actin saturated with TMs (0.12 mg/ml TMs, no 83-kD protein) [1]: 20%
- percent of the TM mass bound to actin (0.06 mg/ml TMs, no 83-kD protein) [1]: 5% and 7%
- stoichiometry N [1]: 6 actin per TM
- Ka [2]: 1.5e+06 M⁻¹
- molar ratio of TMs to sedimentable actin (0.06 mg/ml TMs, 83-kD protein added) [2]: 14 actin per TM
Substance: low mol wt TMs (a mixture of TM-4 [32,400] and TM-5 [32,000])
